Article PMC6041257

B1: GLI1 (transfected, wild type) [human] / SUFU (transfected, HEK293T) [not stated] (parent)
chain 1: MFNSMTPPPISSYGEPCCLRPLPSQGAPSVGTEGLSGPPFCHQANLMSGPHSYGPARETNSCTEGPLFSSPRSAVKLTKKRALSISPLSDASLDLQTVIRTSPSSLVAFINSRCTSPGGSYGHLSIGTMSPSLGFPAQMNHQKGPSPSFGVQPCGPHDSARGGMIPHPQSRGPFPTCQLKSELDMLVGKCREEPLEGDMSSPNSTGIQDPLLGMLDGREDLEREEKREPESVYETDCRWDGCSQEFDSQEQLVHHINSEHIHGERKEFVCHWGGCSRELRPFKAQYMLVVHMRRHTGEKPHKCTFEGCRKSYSRLENLKTHLRSHTGEKPYMCEHEGCSKAFSNASDRAKHQNRTHSNEKPYVCKLPGCTKRYTDPSSLRKHVKTVHGPDAHVTKRHRGDGPLPRAPSISTVEPKREREGGPIREESRLTVPEGAMKPQPSPGAQSSCSSDHSPAGSAANTDSGVEMTGNAGGSTEDLSSLDEGPCIAGTGLSTLRRLENLRLDQLHQLRPIGTRGLKLPSLSHTGTTVSRRVGPPVSLERRSSSSSSISSAYTVSRRSSLASPFPPGSPPENGASSLPGLMPAQHYLLRARYASARGGGTSPTAASSLDRIGGLPMPPWRSRAEYPGYNPNAGVTRRASDPAQAADRPAPARVQRFKSLGCVHTPPTVAGGGQNFDPYLPTSVYSPQPPSITENAAMDARGLQEEPEVGTSMVGSGLNPYMDFPPTDTLGYGGPEGAAAEPYGARGPGSLPLGPGPPTNYGPNPCPQQASYPDPTQETWGEFPSHSGLYPGPKALGGTYSQCPRLEHYGQVQVKPEQGCPVGSDSTGLAPCLNAHPSEGPPHPQPLFSHYPQPSPPQYLQSGPYTQPPPDYLPSEPRPCLDFDSPTHSTGQLKAQLVCNYVQSQQELLWEGGGREDAPAQEPSYQSPKFLGGSQVSPSRAKAPVNTYGPGFGPNLPNHKSGSYPTPSPCHENFVVGANRASHRAAAPPRLLPPLPTCYGPLKVGGTNPSCGHPEVGRLGGGPALYPPPEGQVCNPLDSLDLDNTQLDFVAILDEPQGLSPPPSHDQRGSSGHTPPPSGPPNMAVGNMSVLLRSLPGETEFLNSSA
chain 2: MAELRPSGAPGPTAPPAPGPTAPPAFASLFPPGLHAIYGECRRLYPDQPNPLQVTAIVKYWLGGPDPLDYVSMYRNVGSPSANIPEHWHYISFGLSDLYGDNRVHEFTGTDGPSGFGFELTFRLKRETGESAPPTWPAELMQGLARYVFQSENTFCSGDHVSWHSPLDNSESRIQHMLLTEDPQMQPVQTPFGVVTFLQIVGVCTEELHSAQQWNGQGILELLRTVPIAGGPWLITDMRRGETIFEIDPHLQERVDKGIETDGSNLSGVSAKCAWDDLSRPPEDDEDSRSICIGTQPRRLSGKDTEQIRETLRRGLEINSKPVLPPINPQRQNGLAHDRAPSRKDSLESDSSTAIIPHELIRTRQLESVHLKFNQESGALIPLCLRGRLLHGRHFTYKSITGDMAITFVSTGVEGAFATEEHPYAAHGPWLQILLTEEFVEKMLEDLEDLTSPEEFKLPKEYSWPEKKLKVSILPDVVFDSPLH

Variants of: B1
Assay: co-immunoprecipitation (IP: HA (SUFU-HA), IB: Flag (GLI1-Flag))
Conditions: with SUFU (transfected, HEK293T); HEK293T cells; SUFU-HA + GLI1-Flag + MEKK3-Flag co-expressed; parent: 3

| screen value | Variant |
| --- | --- |
| 3.9 | chain 1 S201D S204D S243D S968D T1074D S1078D |

Same assay, conditions: with SUFU (transfected, HEK293T); HEK293T cells; SUFU-HA + GLI1-Flag + Vector (no MEKK3); parent: 1

| ratio to parent | Variant |
| --- | --- |
| 3 | chain 1 S201D S204D S243D S968D T1074D S1078D |
